For the test, the target named is T1, SARS-CoV-2 nsp12 (RNA-dependent RNA polymerase with N-terminal NiRAN domain) (SARS-CoV-2, UniProt P0DTD1).
T1 construct: also called WT nsp12; RdRp
The test can be described thus: cryo-EM structure. The settings on record: both partners purified.

B1: SARS-CoV-2 nsp9 (native N terminus) (natural protein)
chain: NNELSPVALRQMSCAAGTTQTACTDDNALAYYNTTKGGRFVLALLSDLQDLKWARFPKSDGTGTIYTELEPPCRFVTDTPKGPKVKYLYFIKGLNNLNRGMVLGSLAATVRLQ
notes: also called native nsp9
With B1, the binding result is listed as “binds”.

These data come from article PMC9492545 (Nature, 2022).
